In the supplement of paper PMC9170038:

Test system: MS2 coat protein
Assay: apparent KD of MS2 coat protein; designed switch direction (-1 OFF switch, 1 ON switch): 1; higher = weaker reporter binding
Summary of the method: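 Each step of the titration lasted 0.8–1.5 h at the lowest concentration and 10–20 min at the highest. The protein, SNAP-549-labelled MS2 coat protein, went from 0.7 or 1.5 nM doubling to 3 µM over RNA switches transcribed on Illumina chips by stalled E. coli RNA polymerase. Normalised cluster fluorescence was curve-fitted, and the per-design median over clusters is given as apparent KD.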

[1] = input ligand: microRNA oligo, concentration not stated
[2] = Eterna round: R95, input ligand: microRNA oligo, concentration not stated
[3] = Eterna round: R95, input ligand: FMN 200 uM
[4] = Eterna round: R95, input ligand: none

| Sequence | apparent KD of MS2 coat protein (input ligand: FMN 200 uM) [nM] | apparent KD of MS2 coat protein [1] [nM] | apparent KD of MS2 coat protein (input ligand: none) [nM] | apparent KD of MS2 coat protein [2] [nM] | apparent KD of MS2 coat protein [3] [nM] | apparent KD of MS2 coat protein [4] [nM] |
| --- | --- | --- | --- | --- | --- | --- |
| AUAACACUGGCAGGAUAUGGGAAAGGAAGUGUACCAGAAGGGCCAGAACGGCGAUGGACAUGAGGAUCACCCAUGUCUUAGCCU [PowerStrip SSNG 1.4] (Eterna round: R96, puzzle: Same State NG 1) | 12.7 | 11.4 | 13.9 |  |  |  |
| AUUGCUAGCACAGGAUAUCAUGCGAAAAUUGCGUGAGAAGGGUGGACGCUGUCAUUCACGGAGGACAUGAGGAUCACCCAUGUC [SameState NG1 #78] (Eterna round: R96, puzzle: Same State NG 1) | 54.4 | 53.4 | 62.6 |  |  |  |
| GCAGGACAUGAGGAUCACCCAUGUUCAAAAUAUUGAGGAUAUGGAUACGGUAUAUCCGAACCAGAAGGCAACCUGC [SS1 Teenbexe 22] (puzzle: Same State 1) |  |  |  | 16.6 |  |  |
| AUGCAGCUACCACAGGAUAUACGUGGAUCGACAUGAGGAUCACCCAUGUAUAUCCUAAUAAUUGCGUAGAAGGGUGGUCAGCUGC [Tezaqutete] (puzzle: Same State 2) |  |  |  | 696 |  |  |
| UAUGACUUACAAGGAUAUUAAUGACAUGAGGAUCACCCAUGUGGCUGUGUAUGUUAGAUAAGCAUUAAGAAGGUGUGCGAGUCU [JR_SSNG2_Sub097] (Eterna round: R96, puzzle: Same State NG 2) | 30.7 | 23.2 | 25.4 |  |  |  |
| GAGGAACAUGAGGAUCACCCAUGUAGGAUGGGACAAGGAUAUGUAGAUAGCGGAGGAGAGACAGAAGGUGUAGGAA [JR_SS1_Sub053] (puzzle: Same State 1) |  |  |  | 431 | 354 | 483 |
| GUAGCAUACCGAGGAUAUUCAUAUUAAAACAUGAGGAUCACCCAUGUUUAGGCCAAAAGGCCUUGGGAGAAGGCGGAAUGCUAC [Xeonanis - 20 Mod4] (Eterna round: R96, puzzle: Same State NG 2) | 19.2 | 17.9 | 25.1 |  |  |  |
| GCAUGAGAGAUAGGAUAUCGUGUACCUACAUGUGACAUGAGGAUCACCCAUGUGGUAAGUAUGAGCGAGAAGGAUCCGAUAUGU [salish99_SSNG2_r04_1002] (Eterna round: R96, puzzle: Same State NG 2) | 26.6 | 44.4 | 60.9 |  |  |  |
| GUUAGGAAUCUAGCAAACAUGAGGAUCACCCAUGUAAGUGGGAAGGAUAUGGUACAGAAACUGUACCAGAAGGUCUUAUUAAUU [Omei SS(NG) 3 AV1] (Eterna round: R96, puzzle: Same State NG 3) | 128 | 246 | 306 |  |  |  |
| GUACAGAUUAUAGGAUAUCACGUCGAAUAGACGUGAGAAGGAUAAUCCCACAUGAAUAUUAAUACAUGAGGAUCACCCAUGUAC [SSNG1/18-B1] (Eterna round: R96, puzzle: Same State NG 1) | 16.8 | 19.8 | 20.4 |  |  |  |
| CCGGUUUAUGGAGGAUAUGGAGCCUUAUUGGCUCCAGAAGGCUAAUAACAUGAGGAUCACCCAUGUCCGGCGGUCAAUAGACCG [Eli NG1ss - 57] (Eterna round: R96, puzzle: Same State NG 1) | 21.7 | 69.8 | 90.5 |  |  |  |
| GAGAGAGGGUGAGGAUAUGGAGUAAUAAUGAUACCAGAAGGCACAGACAUGAGGAUCACCCAUGUGGGAAUAAUCCAGAGAGAG [Parity 7 - Jieux - Same State NG 1] (Eterna round: R96, puzzle: Same State NG 1) | 506 | 177 | 264 |  |  |  |
| AUUAUUUCAUGAGGAUAUGGCACCUUAUUGGUGCCAGAAGGCAUGUCUAUUGACAUGAGGAUCACCCAUGUAUUAUAUUAUAUA [Eli NG1ss - 88] (Eterna round: R96, puzzle: Same State NG 1) | 57.4 | 658 | 493 |  |  |  |
| AAAAGAAACACAGGAUAUACCGCGCUUAACGCGGUAGAAGGGUGGGACAUGAGGAUCACCCAUGUGGCCUGAGCGCCAGGCCGC [Uszadi] (Eterna round: R96, puzzle: Same State NG 1) | 428 | 14.1 | 299 |  |  |  |
| ACAUGAGACAUAGGAUAUGUUGUACCUACAUGUGACAUGAGGAUCACCCAUGUGGUAAGUAUGAGACAGAAGGAUGAGAUAUGU [Equivalence 30 - Jieux - Same State NG 2] (Eterna round: R96, puzzle: Same State NG 2) | 27.5 | 43.4 | 73 |  |  |  |
| GCCAUCGUGUGAGGAUAUGGCACCGUUUCGGUGCCAGAAGGCAUGUCAAUUGACAUGAGGAUCACCCAUGUAUUAGCGAUGGCA [JL Fiskers NG1ss - 33 mod 3] (Eterna round: R96, puzzle: Same State NG 1) | 159 | 292 | 988 |  |  |  |
| AGCUAAAACGAAGGAUAUACUGACAUGAGGAUCACCCAUGUCUACAUGAUUUAUUGUGAUCACAUGUAGAAGGUCGUACUAACA [SameState NG2 #22] (Eterna round: R96, puzzle: Same State NG 2) |  | 58.5 |  |  |  |  |
| AUAAUAAUAAGUCAGGAUAUGUUGAUAAAGACAUGAGGAUCACCCAUGUGAAAUAAAAUAAUAAUACAGAAGGGACAAUAAUAAA [JMF's solution 3] (puzzle: Same State 2) |  |  |  | 64 | 252 | 265 |
| UUGCGGGCUUGAGGAUAUUGAGUACAUAUGUUUAACAUGAGGAUCACCCAUGUGGGUUGCGGUAUCGAGAAGGUGGCUUCCUGC [salish99_SSNG2_r04_813] (Eterna round: R96, puzzle: Same State NG 2) | 81.9 | 82.7 | 74.8 |  |  |  |
| UGAAUAGUUACAGGAUAUCAUGCGAAAAUUGCGUGAGAAGGGUGGGUGUUGUGCGCUAAGUGCCACAUGAGGAUCACCCAUGUU [SameState NG1 #38] (Eterna round: R96, puzzle: Same State NG 1) | 44.5 | 7.1 | 25.6 |  |  |  |
| AGAUCAUGACGAGGAUAUGCAACAUGAGGAUCACCCAUGUAUGUUGCAGGACGCGUACGUCCAAUGUAGAAGGCGUCGUGGUCA [JL SSNG2 1.06] (Eterna round: R96, puzzle: Same State NG 2) | 40.2 | 146 | 150 |  |  |  |
| GCUCGAUGAUAGGCCUACAUGAGGAUCACCCAUGUAAGUGGGCAGGAUAUCUAAAUGCAGAAUGUAGAGAAGGGCCCGUCGAGC [SameState NG3 #54] (Eterna round: R96, puzzle: Same State NG 3) | 612 | 239 | 1460 |  |  |  |
| GUGGUCAGACAUGAGGAUCACCCAUGUGGAAUAAAUAACAGACAGGAUAUUUAAUAUAGGAUAUAGAAGAAGGGUCGAUUGGUG (Eterna round: R96, puzzle: Same State NG 3) | 117 | 87.5 | 103 |  |  |  |
| AUUAUACAUGAGGAUCACCCAUGUAAUUAAUUAAUUAAGAUCUAGGAUAUCAGCUCGAUUAGAGCUGAGAAGGAGAUCACAUGU [SSNG3/20-C2] (Eterna round: R96, puzzle: Same State NG 3) |  | 21.2 |  |  |  |  |
| GUACAGAUCACAGGAUAUCACGUCGAAUAGACGUGAGAAGGGUGAUCACACAUGAAUAUUAAUACAUGAGGAUCACCCAUGUAC [SSNG1/16-A1] (Eterna round: R96, puzzle: Same State NG 1) | 71 | 14.1 | 20.4 |  |  |  |
| AACAAUCUAUCUGAGGAUAUCAUGAAAUAAACAUGAGGAUCACCCAUGUGCAGGAAAAUUGCAUAUGAGAAGGCAGAUAGAUUGA [salish99_ss2_r3_044] (puzzle: Same State 2) |  |  |  | 771 | 37.9 | 669 |
| AAUUAAUUAAUUAAUAUACAUGAGGAUCACCCAUGUAAGAUCAAGGAUAUCAGCUCGAAUAGAGCUGAGAAGGUGAUCACAUGU [SSNG3/16-A1] (Eterna round: R96, puzzle: Same State NG 3) |  | 251 |  |  |  |  |
| AAUUAAGAUCAAGGAUAUCACGUCGAUUAGACGUGAGAAGGUGAUCCAUACAUGAGGAUCACCCAUGUAUAACAUGAAUUAAUU [SSNG1/8-B2] (Eterna round: R96, puzzle: Same State NG 1) | 395 | 626 | 1580 |  |  |  |
